Experiments:
[1] = target: B7-H3 on human cancer cells (human) (UniProt Q5ZPR3); test: flow cytometry on U251 brain tumor cells; control (secondary antibody only) < 10%
SPTGAVEVQVPEDPV = target: T1, SPTGAVEVQVPEDPV; test: peptide microarray, 15-mers of human 4Ig B7-H3; panel Ig-like-V type 2
T1 construct: 15-mer of human 4Ig B7-H3 on the peptide microarray, panel Ig-like-V type 2
T1 peptide: SPTGAVEVQVPEDPV
Procedure: (§1) It was confirmed that G2D IgG has linear epitopes since G2D was verified to recognize 4lg B7-H3 through western blot (FIG. 10a). Therefore, linear epitope mapping was conducted by Pepperprint GmbH (Germany). After preparing a peptide microarray from the 15 4lg B7-H3 amino acids with 14-amino acid overlaps, the antibodies binding to peptides were identified using secondary antibodies (FIG. 10b). As a result, it was confirmed that G2D IgG binds to a peptide having a sequence of EVQVP (FIG. 10c). EVQVP is located in the Ig-like V-type1 and Ig-like V-type2 domains of 4lg B7-H3 (FIGS. 10d and 10e). When the epitopes of the control antibody enoblituzumab were identified by the same method, it was confirmed that the epitopes include the sequence of GYPEAE (FIG. 10b), and GYPEAE is located in the Ig-like C2-type1 and Ig-like C2-type2 domains of 4lg B7-H3 (FIGS. 10d and 10e). As a result, it was confirmed that G2D IgG and the control antibody enoblituzumab have different epitopes.

QRSPTGAVEVQVPED = target: T2, QRSPTGAVEVQVPED; test: as above
T2 construct: 15-mer of human 4Ig B7-H3 on the peptide microarray, panel Ig-like-V type 2
T2 peptide: QRSPTGAVEVQVPED
Procedure: as §1

VEVQVPEDPVVALVG = target: T3, VEVQVPEDPVVALVG; test: as above
T3 construct: 15-mer of human 4Ig B7-H3 on the peptide microarray, panel Ig-like-V type 2
T3 peptide: VEVQVPEDPVVALVG
Procedure: as §1

RSPTGAVEVQVPEDP = target: T4, RSPTGAVEVQVPEDP; test: as above
T4 construct: 15-mer of human 4Ig B7-H3 on the peptide microarray, panel Ig-like-V type 2
T4 peptide: RSPTGAVEVQVPEDP
Procedure: as §1

GAVEVQVPEDPVVAL = target: T5, GAVEVQVPEDPVVAL; test: as above
T5 construct: 15-mer of human 4Ig B7-H3 on the peptide microarray, panel Ig-like-V type 2
T5 peptide: GAVEVQVPEDPVVAL
Procedure: as §1

PQRSPTGAVEVQVPE = target: T6, PQRSPTGAVEVQVPE; test: as above
T6 construct: 15-mer of human 4Ig B7-H3 on the peptide microarray, panel Ig-like-V type 2
T6 peptide: PQRSPTGAVEVQVPE
Procedure: as §1

TPQRSPTGAVEVQVP = target: T7, TPQRSPTGAVEVQVP; test: as above
T7 construct: 15-mer of human 4Ig B7-H3 on the peptide microarray, panel Ig-like-V type 2
T7 peptide: TPQRSPTGAVEVQVP
Procedure: as §1

PTGAVEVQVPEDPVV = target: T8, PTGAVEVQVPEDPVV; test: as above
T8 construct: 15-mer of human 4Ig B7-H3 on the peptide microarray, panel Ig-like-V type 2
T8 peptide: PTGAVEVQVPEDPVV
Procedure: as §1

TGAVEVQVPEDPVVA = target: T9, TGAVEVQVPEDPVVA; test: as above
T9 construct: 15-mer of human 4Ig B7-H3 on the peptide microarray, panel Ig-like-V type 2
T9 peptide: TGAVEVQVPEDPVVA
Procedure: as §1

[2] = target: human 2Ig B7-H3 expressed on Raji cells (human) (UniProt Q5ZPR3); test: flow cytometry on Raji cells expressing 2Ig B7-H3; the vector control Raji cells show < 2%
human 2Ig B7-H3 expressed on Raji cells (human), sequence (Q5ZPR3 other isoform, or with tags, fused parts or gaps, form in doubt): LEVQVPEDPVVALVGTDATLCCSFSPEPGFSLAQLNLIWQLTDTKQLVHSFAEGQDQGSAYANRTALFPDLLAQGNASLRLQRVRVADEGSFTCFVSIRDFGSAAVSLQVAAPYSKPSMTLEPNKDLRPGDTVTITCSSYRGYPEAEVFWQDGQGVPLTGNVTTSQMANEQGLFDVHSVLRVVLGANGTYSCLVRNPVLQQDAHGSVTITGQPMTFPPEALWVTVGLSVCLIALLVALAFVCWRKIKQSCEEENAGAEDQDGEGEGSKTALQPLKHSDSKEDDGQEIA

B7-DC = target: T10, B7-DC (UniProt Q9BQ51 20-219, limits assumed); test: indirect ELISA, B7-DC coated at 1 ug/mL, absorbance at 450 nm
T10 sequence (looked up): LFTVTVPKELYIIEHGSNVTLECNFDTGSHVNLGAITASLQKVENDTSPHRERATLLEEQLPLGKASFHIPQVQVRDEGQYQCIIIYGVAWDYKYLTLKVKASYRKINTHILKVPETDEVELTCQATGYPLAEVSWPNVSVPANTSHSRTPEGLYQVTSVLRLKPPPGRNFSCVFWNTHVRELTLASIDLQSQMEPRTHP
Procedure: [The procedure below names another target; the source lists this target under the same test.] The binding ability of 2D IgG prepared in Example 2 for recombinant B7-H3 protein was investigated by indirect ELISA. For indirect ELISA, recombinant human 4lg B7-H3, recombinant human 2lg B7-H3 and recombinant mouse B7-H3 were diluted respectively to 1 μg/mL in 50 μL of PBS and adsorbed overnight onto a 96-well immunoplate (Corning, USA) by storing at 4° C. After reaction with a buffer solution containing 3% bovine serum albumin at room temperature for 1 hour, followed by washing 3 times with a buffer solution containing 0.5% Tween 20, each well was treated with 50 μL of the antibodies diluted serially (0.0001, 0.0003, 0.001, 0.003, 0.01, 0.03, 0.1, 0.3, 1, 3 and 10 nM). For antigen-antibody binding, the mixture was reacted at room temperature for 2 hours, and then washed 3 times with a buffer solution containing 0.5% Tween 20. After treating each well with 50 μL of anti-human immunoglobulin Fc-HRP antibodies (Jackson Immunoresearch, USA) diluted to 1:3,000, reaction was conducted at room temperature for 1 hour. […] As a result of measuring absorbance at 450 nm using a spectrophotometer (Biotek, USA), it was confirmed that 2D IgG binds to B7-H3, and the binding ability was in the order of 4lg B7-H3, 2lg B7-H3 and mouse B7-H3 (FIG. 2a). […]

[3] = target: B7-H3 on human cancer cells (human) (UniProt Q5ZPR3); test: flow cytometry on HepG2K liver cancer cells; control (secondary antibody only) < 20%

B1: G2D IgG (antibody, V domains shown)
VH: QVQLVESGGGLVQPGGSLRLSCSASGFDFSSYPMVWVRQAPGKGLEYVSSINSGGSWTGYGAAVKGRATISRDNSKNTLYLQMNSLRAEDTATYYCARAYGAATIDAWGQGTTVTVSS
VL: SYELTQPPSVSVSPGQTARITCSGGSIGYGWYQQKAPGQAPVTVIYYNDRRPSGIPERFSGSKSGTTNTLTISGVQAEDEADYYCGSADSSSTYTGIFGGGTKLTVL
notes: The back-substitutions (L46T, S66K, V71N in VL); also called humanized 2D; G2D antibody
[1]
  % of cells in the positive gate: > 95%
SPTGAVEVQVPEDPV
  fluorescence intensity of the peptide spot: 94.8
QRSPTGAVEVQVPED
  fluorescence intensity of the peptide spot: 80
VEVQVPEDPVVALVG
  fluorescence intensity of the peptide spot: 92.5
RSPTGAVEVQVPEDP
  fluorescence intensity of the peptide spot: 120
GAVEVQVPEDPVVAL
  fluorescence intensity of the peptide spot: 95
PQRSPTGAVEVQVPE
  fluorescence intensity of the peptide spot: 92.3
TPQRSPTGAVEVQVP
  fluorescence intensity of the peptide spot: 89.3
PTGAVEVQVPEDPVV
  fluorescence intensity of the peptide spot: 142
TGAVEVQVPEDPVVA
  fluorescence intensity of the peptide spot: 84.5
[2]
  % of cells in the positive gate (P3): > 40%
B7-DC
  binding result: no binding (tested: 10 nM)
[3]
  % of cells in the positive gate: > 95%

— patent publication US20260201038A1 (CELLABMED, published 2026)
